Columns and labels:
[1] = target: SALM5 (untagged) (not stated (mouse and human SALM5 are named for other constructs)) (UniProt Q8BXA0); assay: quantitative cell-surface binding assay (HRP anti-human Fc, Scatchard analysis); apparent; SALM5 (untagged)-expressing HEK293T cells in 96-well plates, fixed, incubated with increasing concentrations of LAR-Ecto-Fc for 1 hour, HRP-conjugated anti-human-Fc, TMB colour reaction
[2] = target: T1, LAR-Ig (Ig1-3)-Fc of the BLI (human, UniProt P10586 30-318); assay: BLI; BLItz; 10 μM LAR-Ig (Ig1-3)-Fc or LAR-FN12-Fc immobilised on protein A biosensors for 120 s, hybrid SALM5-Ecto as analyte at three concentrations; 20 mM HEPES, 50 mM NaCl, pH 7.0; global fit; conditions: both partners purified
T1 chain: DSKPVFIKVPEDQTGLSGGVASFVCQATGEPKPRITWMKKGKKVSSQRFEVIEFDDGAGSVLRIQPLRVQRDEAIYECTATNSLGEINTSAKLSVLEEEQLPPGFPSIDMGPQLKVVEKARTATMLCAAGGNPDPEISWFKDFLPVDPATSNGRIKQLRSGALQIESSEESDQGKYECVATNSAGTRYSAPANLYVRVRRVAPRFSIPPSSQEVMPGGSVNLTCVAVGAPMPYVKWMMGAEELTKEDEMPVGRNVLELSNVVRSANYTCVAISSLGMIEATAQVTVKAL

hySALM5-Ecto-Fc = target: T2, hySALM5-Ecto-Fc ( | human, UniProt Q96NI6 59-374); assay: BLI; BLItz; hySALM5-Ecto-Fc pre-bound to protein A biosensors, LAR-Ig-FN12 as analyte at three concentrations; 20 mM HEPES, 50 mM NaCl, pH 7.0; global fit; conditions: both partners purified
T2 chain: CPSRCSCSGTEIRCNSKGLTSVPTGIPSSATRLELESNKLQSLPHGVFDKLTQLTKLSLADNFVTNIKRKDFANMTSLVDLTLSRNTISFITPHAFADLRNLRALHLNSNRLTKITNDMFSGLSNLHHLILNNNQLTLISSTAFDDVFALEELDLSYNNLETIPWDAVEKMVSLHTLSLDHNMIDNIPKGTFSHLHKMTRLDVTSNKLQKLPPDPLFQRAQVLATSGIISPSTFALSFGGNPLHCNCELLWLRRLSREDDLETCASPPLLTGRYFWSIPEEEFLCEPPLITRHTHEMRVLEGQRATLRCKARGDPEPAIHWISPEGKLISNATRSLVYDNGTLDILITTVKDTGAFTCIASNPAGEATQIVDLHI

Sequence of SALM5 (untagged) (not stated (mouse and human SALM5 are named for other constructs)) (Q8BXA0 18-719): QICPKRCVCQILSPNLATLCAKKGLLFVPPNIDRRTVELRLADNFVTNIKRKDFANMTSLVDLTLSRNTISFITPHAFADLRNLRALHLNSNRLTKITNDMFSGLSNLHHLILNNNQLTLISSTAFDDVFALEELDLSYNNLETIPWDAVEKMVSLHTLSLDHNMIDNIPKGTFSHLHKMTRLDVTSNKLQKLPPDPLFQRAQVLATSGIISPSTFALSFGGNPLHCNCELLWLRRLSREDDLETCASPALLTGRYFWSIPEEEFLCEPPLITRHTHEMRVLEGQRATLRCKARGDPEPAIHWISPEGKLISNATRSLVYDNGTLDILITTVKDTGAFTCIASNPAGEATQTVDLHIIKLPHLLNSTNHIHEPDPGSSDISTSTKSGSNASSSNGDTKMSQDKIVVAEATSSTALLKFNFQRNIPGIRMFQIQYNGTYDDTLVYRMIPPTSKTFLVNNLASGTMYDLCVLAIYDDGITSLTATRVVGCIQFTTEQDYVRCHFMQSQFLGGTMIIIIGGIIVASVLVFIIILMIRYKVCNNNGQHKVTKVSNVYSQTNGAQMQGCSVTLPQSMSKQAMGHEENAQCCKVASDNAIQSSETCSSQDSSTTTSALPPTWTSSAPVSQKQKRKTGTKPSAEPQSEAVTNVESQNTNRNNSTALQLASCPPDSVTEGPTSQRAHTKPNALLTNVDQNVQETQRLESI

Work on “LAR-Ecto-Fc (meA^− and meB^−) (from UniProt P10586 30-1263) (Fc fusion)” yielded a Kd [1] of 0.00896 µM.

B1: hySALM5-Ecto (hybrid SALM5, LRR + Ig domains), tag cleaved (domain or fragment)
chain: CPSRCSCSGTEIRCNSKGLTSVPTGIPSSATRLELESNKLQSLPHGVFDKLTQLTKLSLADNFVTNIKRKDFANMTSLVDLTLSRNTISFITPHAFADLRNLRALHLNSNRLTKITNDMFSGLSNLHHLILNNNQLTLISSTAFDDVFALEELDLSYNNLETIPWDAVEKMVSLHTLSLDHNMIDNIPKGTFSHLHKMTRLDVTSNKLQKLPPDPLFQRAQVLATSGIISPSTFALSFGGNPLHCNCELLWLRRLSREDDLETCASPPLLTGRYFWSIPEEEFLCEPPLITRHTHEMRVLEGQRATLRCKARGDPEPAIHWISPEGKLISNATRSLVYDNGTLDILITTVKDTGAFTCIASNPAGEATQIVDLHI
modifications: VLRB.61 printed as M1-L82; signal peptide (1-23) taken as removed on secretion; hagfish accession not among the candidates; LVPR residue left by thrombin cleavage omitted / A-B- form taken as stated …
Work on B1 yielded a Kd [2] of 16.6 µM.

B2: LAR-Ig-FN12 (Ig1-3-FNIII12, aa 27A–513A) (domain or fragment)
chain: AHGDSKPVFIKVPEDQTGLSGGVASFVCQATGEPKPRITWMKKGKKVSSQRFEVIEFDDGAGSVLRIQPLRVQRDEAIYECTATNSLGEINTSAKLSVLEEEQLPPGFPSIDMGPQLKVVEKARTATMLCAAGGNPDPEISWFKDFLPVDPATSNGRIKQLRSGALQIESSEESDQGKYECVATNSAGTRYSAPANLYVRVRRVAPRFSIPPSSQEVMPGGSVNLTCVAVGAPMPYVKWMMGAEELTKEDEMPVGRNVLELSNVVRSANYTCVAISSLGMIEATAQVTVKALPKPPIDLVVTETTATSVTLTWDSGNSEPVTYYGIQYRAAGTEGPFQEVDGVATTRYSIGGLSPFSEYAFRVLAVNSIGRGPPSEAVRARTGEQAPSSPPRRVQARMLSASTMLVQWEPPEEPNGLVRGYRVYYTPDSRRPPNAWHKHNTDAGLLTTVGSLLPGITYSLRVLAFTAVGDGPPSPTIQVKTQQGVPA
modifications: splice form not given; A-B- form taken because the printed limits fit the P10586 numbering (no meA, no meB) / C-terminal Fc carrier omitted (the Fc would dimerise the chain); VLRB.61 signal peptide
In the case of B2, the Kd (hySALM5-Ecto-Fc) is reported as 38.5 µM.

From publication PMC4881023, “SALM5 trans-synaptically interacts with LAR-RPTPs in a splicing-dependent manner to regulate synapse development” (Scientific Reports, 2016)
